In patent US20140242077A1 (AbbVie / Abbott, published 2014):
Changes are numbered by the printed parent chain.

T1: LAG3 (human, UniProt P18627 23-525)
T1 construct: whole, on cells; The intended T-cell surface marker of the LAG3 variable domains
T1 sequence (looked up): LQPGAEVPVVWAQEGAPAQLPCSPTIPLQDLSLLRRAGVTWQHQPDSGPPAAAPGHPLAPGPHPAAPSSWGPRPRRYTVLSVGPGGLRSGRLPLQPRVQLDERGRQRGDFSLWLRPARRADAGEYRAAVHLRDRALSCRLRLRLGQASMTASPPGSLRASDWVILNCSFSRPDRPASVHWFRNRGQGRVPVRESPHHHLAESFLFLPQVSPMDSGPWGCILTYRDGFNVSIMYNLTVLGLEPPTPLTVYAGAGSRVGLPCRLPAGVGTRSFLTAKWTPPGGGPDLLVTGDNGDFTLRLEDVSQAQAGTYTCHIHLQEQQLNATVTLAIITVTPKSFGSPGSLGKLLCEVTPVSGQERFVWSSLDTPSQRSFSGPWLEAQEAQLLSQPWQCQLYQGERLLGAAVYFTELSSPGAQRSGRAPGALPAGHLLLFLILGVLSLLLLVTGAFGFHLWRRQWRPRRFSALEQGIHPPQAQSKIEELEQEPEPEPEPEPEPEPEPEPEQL

B1: DVD2555 (bispecific antibody)
VH: QVQLVESGGGVVQPGRSLRLDCKASGITFSNSGMHWVRQAPGKGLEWVAVIWYDGSKRYYADSVKGRFTISRDNSKNTLFLQMNSLRAEDTAVYYCATNDDYWGQGTLVTVSSASTKGPQVQLQQWGAGLLKPSETLSLTCAVYGGSFSDYYWNWIRQPPGKGLEWIGEINHNGNTNSNPSLKSRVTLSLDTSKNQFSLKLRSVTAADTAVYYCAFGYSDYEYNWFDPWGQGTLVTVSS
VL: EIVLTQSPATLSLSPGERATLSCRASQSVSSYLAWYQQKPGQAPRLLIYDASNRATGIPARFSGSGSGTDFTLTISSLEPEDFAVYYCQQSSNWPRTFGQGTKVEIKRTVAAPEIVLTQSPATLSLSPGERATLSCRASQSISSYLAWYQQKPGQAPRLLIYDASNRATGIPARFSGSGSGTDFTLTISSLEPEDFAVYYCQQRSNWPLTFGQGTNLEIKR
notes: Four-chain DVD-Ig; also called DVD2555H/DVD2555L; PD1/LAG3 DVD-Ig
B2: DVD2557 (bispecific antibody)
VH: QVQLQQWGAGLLKPSETLSLTCAVYGGSFSDYYWNWIRQPPGKGLEWIGEINHNGNTNSNPSLKSRVTLSLDTSKNQFSLKLRSVTAADTAVYYCAFGYSDYEYNWFDPWGQGTLVTVSSASTKGPQVQLVESGGGVVQPGRSLRLDCKASGITFSNSGMHWVRQAPGKGLEWVAVIWYDGSKRYYADSVKGRFTISRDNSKNTLFLQMNSLRAEDTAVYYCATNDDYWGQGTLVTVSS
VL: B1 VL with V29I, S91R, R96L, K103N, V104L, I142V, R204S, L209R, N216K, L217V
notes: Four-chain DVD-Ig; also called DVD2557H/DVD2557L; LAG3/PD1 DVD-Ig
B3: DVD2556 (bispecific antibody)
VH: QVQLVESGGGVVQPGRSLRLDCKASGITFSNSGMHWVRQAPGKGLEWVAVIWYDGSKRYYADSVKGRFTISRDNSKNTLFLQMNSLRAEDTAVYYCATNDDYWGQGTLVTVSSASTKGPSVFPLAPQVQLQQWGAGLLKPSETLSLTCAVYGGSFSDYYWNWIRQPPGKGLEWIGEINHNGNTNSNPSLKSRVTLSLDTSKNQFSLKLRSVTAADTAVYYCAFGYSDYEYNWFDPWGQGTLVTVSS
VL: B1 VL
notes: Four-chain DVD-Ig; also called DVD2556H/DVD2556L; PD1/LAG3 DVD-Ig
B4: DVD2569 (bispecific antibody)
VH: QVQLQQWGAGLLKPSETLSLTCAVYGGSFSDYYWNWIRQPPGKGLEWIGEINHNGNTNSNPSLKSRVTLSLDTSKNQFSLKLRSVTAADTAVYYCAFGYSDYEYNWFDPWGQGTLVTVSSASTKGPQVQLQQWGAGLLKPSETLSLTCAVYGGSFSGYYWSWIRQSPEKGLEWIGEINHGGYVTYNPSLESRVTISVDTSKNQFSLKLSSVTAADTAVYYCARDYGPGNYDWYFDLWGRGTLVTVSS
VL: EIVLTQSPATLSLSPGERATLSCRASQSISSYLAWYQQKPGQAPRLLIYDASNRATGIPARFSGSGSGTDFTLTISSLEPEDFAVYYCQQRSNWPLTFGQGTNLEIKRTVAAPEIVLTQSPATLSLSPGERATLSCRASQSVSSYLAWYQQKPGQAPRLLIYDASNRATGIPARFSGSGSGTDFTLTISSLEPEDFAVYYCQQRSNWPPALTFGGGTKVEIKR
notes: Four-chain DVD-Ig; also called DVD2569H/DVD2569L; LAG3/41BB DVD-Ig
B5: DVD2570 (bispecific antibody)
VH: QVQLQQWGAGLLKPSETLSLTCAVYGGSFSDYYWNWIRQPPGKGLEWIGEINHNGNTNSNPSLKSRVTLSLDTSKNQFSLKLRSVTAADTAVYYCAFGYSDYEYNWFDPWGQGTLVTVSSASTKGPSVFPLAPQVQLQQWGAGLLKPSETLSLTCAVYGGSFSGYYWSWIRQSPEKGLEWIGEINHGGYVTYNPSLESRVTISVDTSKNQFSLKLSSVTAADTAVYYCARDYGPGNYDWYFDLWGRGTLVTVSS
VL: B4 VL
notes: Four-chain DVD-Ig; also called DVD2570H/DVD2570L
B6: DVD2567 (bispecific antibody)
VH: QVQLQQWGAGLLKPSETLSLTCAVYGGSFSGYYWSWIRQSPEKGLEWIGEINHGGYVTYNPSLESRVTISVDTSKNQFSLKLSSVTAADTAVYYCARDYGPGNYDWYFDLWGRGTLVTVSSASTKGPQVQLQQWGAGLLKPSETLSLTCAVYGGSFSDYYWNWIRQPPGKGLEWIGEINHNGNTNSNPSLKSRVTLSLDTSKNQFSLKLRSVTAADTAVYYCAFGYSDYEYNWFDPWGQGTLVTVSS
VL: EIVLTQSPATLSLSPGERATLSCRASQSVSSYLAWYQQKPGQAPRLLIYDASNRATGIPARFSGSGSGTDFTLTISSLEPEDFAVYYCQQRSNWPPALTFGGGTKVEIKRTVAAPEIVLTQSPATLSLSPGERATLSCRASQSISSYLAWYQQKPGQAPRLLIYDASNRATGIPARFSGSGSGTDFTLTISSLEPEDFAVYYCQQRSNWPLTFGQGTNLEIKR
notes: Four-chain DVD-Ig; also called DVD2567H/DVD2567L; 41BB/LAG3 DVD-Ig
B7: DVD2568 (bispecific antibody)
VH: QVQLQQWGAGLLKPSETLSLTCAVYGGSFSGYYWSWIRQSPEKGLEWIGEINHGGYVTYNPSLESRVTISVDTSKNQFSLKLSSVTAADTAVYYCARDYGPGNYDWYFDLWGRGTLVTVSSASTKGPSVFPLAPQVQLQQWGAGLLKPSETLSLTCAVYGGSFSDYYWNWIRQPPGKGLEWIGEINHNGNTNSNPSLKSRVTLSLDTSKNQFSLKLRSVTAADTAVYYCAFGYSDYEYNWFDPWGQGTLVTVSS
VL: B6 VL
notes: Four-chain DVD-Ig; also called DVD2568H/DVD2568L; 41BB/LAG3 DVD-Ig

Target: T2, PD1 (human, UniProt Q15116 25-288)
T2 construct: whole, on cells; The intended T-cell surface marker of the PD1 variable domains; also called programmed cell death protein 1
Test: flow cytometry on activated human T-cells
Experimental: (§1) PBMCs were isolated from heparinized leukopaks by use of Ficoll density gradient centrifugation. PBMCs were stimulated overnight with CD2/CD3/CD28 beads from a T-Cell Activation/Expansion Kit (Miltenyi Biotech, Germany) according to the manufacturer's protocol. Activated T-cells were incubated with primary antibody for 1 hour at 4° C., washed in PBS, and then incubated for 30 minutes with fluorescently-labeled secondary anti-Fc specific antibody (Jackson ImmunoResearch, West Grove, Pa.). Activated T-cell samples were analyzed on a FACSCantoII cytometer (BD) and data were analyzed with FlowJo software. Geometric mean fluorescence intensity was compared to DVD-Ig protein concentration by graphing in the GraphPad Prism software package (see FIG. 14).

T2 sequence (Q15116 25-288): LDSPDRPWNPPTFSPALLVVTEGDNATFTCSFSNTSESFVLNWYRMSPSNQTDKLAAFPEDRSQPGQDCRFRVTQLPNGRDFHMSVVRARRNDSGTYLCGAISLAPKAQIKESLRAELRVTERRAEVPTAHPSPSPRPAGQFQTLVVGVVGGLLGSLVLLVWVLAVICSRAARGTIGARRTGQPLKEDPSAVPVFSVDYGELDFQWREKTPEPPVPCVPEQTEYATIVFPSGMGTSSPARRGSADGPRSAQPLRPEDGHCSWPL

| binding result | Binder |
| --- | --- |
| binds | B1 |
| binds | B2 |
| binds | B3 |

Target: T1, LAG3
Test: flow cytometry on activated human T-cells
Experimental: as §1

| binding result | Binder |
| --- | --- |
| binds | B4 |
| binds | B5 |
| binds | B6 |
| binds | B7 |

Target: T3, 4-1BB (human, UniProt Q07011 24-255)
T3 construct: whole, on cells; The intended T-cell surface marker of the 41BB variable domains; also called CD137; TNFRSF9
Test: flow cytometry on activated human T-cells
Experimental: as §1

T3 sequence (Q07011 24-255): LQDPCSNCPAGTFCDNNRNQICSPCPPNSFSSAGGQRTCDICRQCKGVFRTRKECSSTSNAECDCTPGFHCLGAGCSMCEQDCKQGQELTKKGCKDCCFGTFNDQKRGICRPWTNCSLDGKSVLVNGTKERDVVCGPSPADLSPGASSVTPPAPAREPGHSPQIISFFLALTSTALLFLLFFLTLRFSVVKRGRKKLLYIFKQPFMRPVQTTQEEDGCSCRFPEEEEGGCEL

| binding result | Binder |
| --- | --- |
| binds | B4 |
| binds | B5 |
| binds | B6 |
| binds | B7 |
